Measured values from patent US20260098102A1 (NATIONAL UNIVERSITY CORPORATION KOBE UNIVERSITY, published 2026).
One block for each binder: values may come before it.

What was measured:
mouse SIRPA BALB/c = biological target: T1, mouse SIRPA BALB/c (mouse (BALB/c), UniProt P97797 35-513); assay: cell-based ELISA, transfected 293α cells
T1 construct: FLAG-tagged (pFLAG V5-DEST), on 293α cells
T1 chain: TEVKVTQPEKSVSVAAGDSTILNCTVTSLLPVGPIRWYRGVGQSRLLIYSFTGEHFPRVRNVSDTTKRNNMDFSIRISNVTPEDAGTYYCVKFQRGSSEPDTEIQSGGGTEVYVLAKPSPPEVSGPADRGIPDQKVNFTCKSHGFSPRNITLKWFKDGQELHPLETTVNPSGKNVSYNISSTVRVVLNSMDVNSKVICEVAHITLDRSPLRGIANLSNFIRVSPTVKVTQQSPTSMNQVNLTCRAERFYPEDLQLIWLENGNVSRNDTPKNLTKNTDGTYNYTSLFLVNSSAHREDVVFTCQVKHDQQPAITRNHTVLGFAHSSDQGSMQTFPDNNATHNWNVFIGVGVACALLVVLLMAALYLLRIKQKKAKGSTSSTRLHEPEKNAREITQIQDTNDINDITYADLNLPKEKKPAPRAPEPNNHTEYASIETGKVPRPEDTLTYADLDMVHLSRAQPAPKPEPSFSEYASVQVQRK
Experimental: (§1) After the culture supernatant of 293α cells into which the pFLAG V5-DEST-monkey SIRPA or pFLAG V5-DEST-mouse SIRPA expression vector was introduced and the pFLAG V5-DEST-introduced 293α cells prepared in Example 1)-5-2 was removed, binding to monkey or mouse SIRPA was evaluated in the same manner as for the binding activity of human SIRPA.

mouse SIRPA_C57BL/6 = biological target: T2, mouse SIRPA_C57BL/6 (mouse (C57BL/6), UniProt P97797 32-513); assay: cell-based ELISA, transfected 293α cells
T2 construct: FLAG-tagged (pFLAG V5-DEST), on 293α cells
T2 sequence: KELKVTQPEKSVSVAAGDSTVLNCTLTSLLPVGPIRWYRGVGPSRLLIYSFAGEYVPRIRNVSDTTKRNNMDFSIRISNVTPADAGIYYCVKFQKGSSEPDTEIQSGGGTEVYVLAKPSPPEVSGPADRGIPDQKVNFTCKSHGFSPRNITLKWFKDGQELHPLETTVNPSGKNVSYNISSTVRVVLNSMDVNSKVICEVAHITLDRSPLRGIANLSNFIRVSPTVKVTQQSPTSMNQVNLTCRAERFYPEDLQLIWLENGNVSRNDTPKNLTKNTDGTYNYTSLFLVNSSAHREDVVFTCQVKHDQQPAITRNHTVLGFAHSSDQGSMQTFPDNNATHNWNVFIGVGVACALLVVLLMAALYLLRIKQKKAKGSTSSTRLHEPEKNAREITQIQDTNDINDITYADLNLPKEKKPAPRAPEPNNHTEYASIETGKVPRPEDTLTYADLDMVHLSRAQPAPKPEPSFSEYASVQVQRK
Experimental: as §1

mouse SIRPA_129 = biological target: T3, mouse SIRPA_129 (mouse (129), UniProt P97797 32-513); assay: cell-based ELISA, transfected 293α cells
T3 construct: FLAG-tagged (pFLAG V5-DEST), on 293α cells; also called 129sv
T3 chain: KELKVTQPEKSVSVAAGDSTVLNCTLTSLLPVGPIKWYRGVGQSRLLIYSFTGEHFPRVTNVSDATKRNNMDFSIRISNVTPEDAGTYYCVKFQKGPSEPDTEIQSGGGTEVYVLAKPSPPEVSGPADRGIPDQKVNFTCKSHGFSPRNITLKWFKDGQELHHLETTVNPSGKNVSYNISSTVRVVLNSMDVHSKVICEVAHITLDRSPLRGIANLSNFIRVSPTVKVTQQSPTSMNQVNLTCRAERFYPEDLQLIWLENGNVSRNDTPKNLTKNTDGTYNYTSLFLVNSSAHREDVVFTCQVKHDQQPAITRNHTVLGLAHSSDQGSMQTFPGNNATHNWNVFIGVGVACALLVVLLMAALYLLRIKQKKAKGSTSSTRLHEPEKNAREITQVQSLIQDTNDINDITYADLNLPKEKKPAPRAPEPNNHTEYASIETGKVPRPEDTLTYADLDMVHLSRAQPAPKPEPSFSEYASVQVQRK
Experimental: as §1

mouse SIRPA_NOD = biological target: T4, mouse SIRPA_NOD (mouse (NOD), UniProt P97797 32-513); assay: cell-based ELISA, transfected 293α cells
T4 construct: FLAG-tagged (pFLAG V5-DEST), on 293α cells; also called NOD SCID
T4 chain: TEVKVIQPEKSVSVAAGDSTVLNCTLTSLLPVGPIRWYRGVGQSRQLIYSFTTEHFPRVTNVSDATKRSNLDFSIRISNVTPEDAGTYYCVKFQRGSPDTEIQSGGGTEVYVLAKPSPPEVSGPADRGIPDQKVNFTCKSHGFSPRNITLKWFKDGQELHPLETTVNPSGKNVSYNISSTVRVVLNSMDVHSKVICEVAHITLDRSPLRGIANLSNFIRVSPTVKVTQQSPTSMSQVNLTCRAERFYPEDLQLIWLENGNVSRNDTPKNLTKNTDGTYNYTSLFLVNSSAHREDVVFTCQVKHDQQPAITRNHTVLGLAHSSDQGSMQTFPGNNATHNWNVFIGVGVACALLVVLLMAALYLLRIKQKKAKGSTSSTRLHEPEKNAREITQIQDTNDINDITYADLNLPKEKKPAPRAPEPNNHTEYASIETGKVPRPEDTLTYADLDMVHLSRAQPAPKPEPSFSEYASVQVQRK
Experimental: as §1

human SIRPA_V4 = biological target: T5, human SIRPA_V4 (human, UniProt P78324 31-504); assay: cell-based ELISA, transfected 293α cells, 10,000 ng/mL, normalized to FLAG
T5 construct: FLAG-tagged (pFLAG V5-DEST), on 293α cells; also called human SIRPA Variant 4
T5 chain: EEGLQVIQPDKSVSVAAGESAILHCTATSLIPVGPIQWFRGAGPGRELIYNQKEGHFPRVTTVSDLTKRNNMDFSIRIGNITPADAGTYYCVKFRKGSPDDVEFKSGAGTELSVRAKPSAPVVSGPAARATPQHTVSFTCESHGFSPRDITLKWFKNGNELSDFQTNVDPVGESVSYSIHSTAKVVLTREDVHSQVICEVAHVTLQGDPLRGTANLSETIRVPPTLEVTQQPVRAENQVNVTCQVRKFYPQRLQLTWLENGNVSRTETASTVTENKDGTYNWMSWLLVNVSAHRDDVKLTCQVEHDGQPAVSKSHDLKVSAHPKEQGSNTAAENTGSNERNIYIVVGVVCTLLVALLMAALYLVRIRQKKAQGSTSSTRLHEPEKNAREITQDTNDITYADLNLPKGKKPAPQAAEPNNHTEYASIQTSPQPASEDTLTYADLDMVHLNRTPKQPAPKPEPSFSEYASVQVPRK
Experimental: (§2) After the culture supernatant of 293α cells into which the vector expressing 10 different variant proteins prepared in Example 2)-1-1 was introduced was removed, 50 μL per well of a purified rat anti-human SIRPA antibody diluted with 5% FBS-containing PBS to a final concentration of 10,000 ng/ml was added to each of pFLAG V5-DEST-SIRPA_V1-V10 and pFLAG V5-DEST-introduced 293α cells, and the mixture was allowed to stand at 4° C. for one hour. Further, 50 μL per well of an anti-FLAG M2 antibody (SIGMA) diluted with 5% FBS-containing PBS to a final concentration of 10,000 ng/mL was added to a well for detecting expression of each SIRPA variant, and the mixture was allowed to stand at 4° C. for one hour. Thereafter, binding to 10 different human SIRPA variants was evaluated in the same manner as in the evaluation of the binding activity of the human SIRPA described in 1)-6-2. Binding of the rat anti-human SIRPA antibodies to each variant was standardized by expression of the FLAG tag.

human SIRPA_V8 = biological target: T6, human SIRPA_V8 (human, UniProt P78324 31-504); assay: as above
T6 construct: FLAG-tagged (pFLAG V5-DEST), on 293α cells; also called human SIRPA Variant 8
Experimental: as §2

binding result (mouse SIRPA BALB/c): no binding | binding result (mouse SIRPA_C57BL/6): no binding | binding result (mouse SIRPA_129): no binding | binding result (mouse SIRPA_NOD): no binding | binding result (human SIRPA_V4): binds | binding result (human SIRPA_V8): binds
B1: rat anti-human SIRPA monoclonal antibody F63 (antibody, V domains shown)
VH: QVQLKESGPGLVQPSETLSLTCTVSGFSLASYSLSWVRQPSGKGPEWMGRMYYDGDTAYNSALKSRLSISRDTSKNQVFLKMNSLQTDDTGTYYCTRDRSMFGTDYPHWYFDFWGPGTMVTVSS
VL: QFTLTQPKSVSGALRSTITIPCERSSGDIGDSYVSWYQRHLGRPPINVIYADDQRPSEVSDRFSGSIDSSSNSASLTITNLQMDDEADYFCQSYDSKIDIFGGGTKLTVL
notes: Rat IgG2a/lambda purified from hybridoma

binding result (mouse SIRPA BALB/c): no binding | binding result (mouse SIRPA_C57BL/6): no binding | binding result (mouse SIRPA_129): no binding | binding result (mouse SIRPA_NOD): no binding | binding result (human SIRPA_V4): binds | binding result (human SIRPA_V8): binds
B2: rat anti-human SIRPA monoclonal antibody F44 (antibody, V domains shown)
VH: EVQLVESGGGLVQPGRSLKLSCAASGFTFSNYYMAWVRQAPTKGLEWVTYITTGGGSTYFRDSVKGRFTISRDNAESTLYLQMDSLRSEDTATYYCTAANYGGSYFDYWGQGVMVTVSS
VL: DVQMTQSPSNLAASPGESVSINCKASKSISKYLAWYQQKPGKANKLLIYSGSTLQSGTPSRFSGSGSGTDFTLTIRNLEPEDFGLYYCQQHNEYPPTFGAGTKLELK
notes: Rat IgG2a/kappa purified from hybridoma
